Laboratory results taken from paper PMC9482650, “Quantitative fragmentomics allow affinity mapping of interactomes” (Nature Communications, 2022).
One block for each binder: values may come before it.

Columns and labels:
Assay in all cases: holdup assay
Set-up in all cases: key: below the threshold = too weak to quantify, mostly under pKd 3.1 to 4
[1] = target: GRIP2_4, Q9C0E4
[2] = target: DLG1_3, Q12959
[3] = target: FRMPD2_3, Q68DX3
[4] = target: T1, PTPN13_1, Q12923
T1 sequence (Q12923 1088-1188, limits assumed, looked up): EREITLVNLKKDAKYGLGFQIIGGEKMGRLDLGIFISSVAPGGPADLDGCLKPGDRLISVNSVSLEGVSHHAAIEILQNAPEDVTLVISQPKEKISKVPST

[5] = target: T2, MPDZ_12, O75970
T2 sequence (O75970 1857-1958, limits assumed, looked up): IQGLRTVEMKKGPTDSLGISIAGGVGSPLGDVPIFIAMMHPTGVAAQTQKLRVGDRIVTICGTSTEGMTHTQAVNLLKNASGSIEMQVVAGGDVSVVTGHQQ

[6] = target: Inadl_6, Q8NI35
[7] = target: Inadl_4, Q8NI35
[8] = target: MAGI3_2, Q5TCQ9
[9] = target: T3, MPDZ_10, O75970
T3 sequence (O75970 1624-1722, limits assumed, looked up): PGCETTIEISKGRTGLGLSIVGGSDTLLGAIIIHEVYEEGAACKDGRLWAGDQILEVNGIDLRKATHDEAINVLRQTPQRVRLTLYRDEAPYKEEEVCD

[10] = target: HTRA1, Q92743
[11] = target: CASK, O14936
[12] = target: T4, SNTG1, Q9NSN8
T4 sequence (Q9NSN8 52-150, limits assumed, looked up): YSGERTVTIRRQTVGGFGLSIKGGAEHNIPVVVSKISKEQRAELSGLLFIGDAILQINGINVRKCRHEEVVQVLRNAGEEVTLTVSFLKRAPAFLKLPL

[13] = target: T5, DFNB31_1, Q9P202
T5 sequence (Q9P202 135-233, limits assumed, looked up): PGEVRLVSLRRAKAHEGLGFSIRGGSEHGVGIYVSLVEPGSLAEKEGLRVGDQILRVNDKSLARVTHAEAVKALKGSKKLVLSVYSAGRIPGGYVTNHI

[14] = target: NHERF2_2, Q15599
[15] = target: ARHGEF12, Q9NZN5-2
[16] = target: T6, LIN7C, Q9NUP9
T6 sequence (Q9NUP9 88-185, limits assumed, looked up): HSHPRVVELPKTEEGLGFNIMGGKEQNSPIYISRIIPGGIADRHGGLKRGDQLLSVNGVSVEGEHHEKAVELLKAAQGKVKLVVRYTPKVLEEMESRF

[17] = target: T7, GRIP1_4, Q9Y3R0
T7 sequence (Q9Y3R0 467-571, limits assumed, looked up): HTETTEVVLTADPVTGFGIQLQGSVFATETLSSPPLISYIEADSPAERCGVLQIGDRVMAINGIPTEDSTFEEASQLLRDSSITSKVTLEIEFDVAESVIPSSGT

[18] = target: GRID2IP_2, A4D2P6
[19] = target: Inadl_5, Q8NI35
[20] = target: T8, HTRA3, P83110
T8 sequence (P83110 354-453, limits assumed, looked up): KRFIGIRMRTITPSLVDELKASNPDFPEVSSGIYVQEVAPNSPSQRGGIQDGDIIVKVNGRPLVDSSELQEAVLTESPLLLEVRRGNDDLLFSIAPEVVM

[21] = target: T9, PARD3B_1, Q8TEW8
T9 sequence (Q8TEW8 196-299, limits assumed, looked up): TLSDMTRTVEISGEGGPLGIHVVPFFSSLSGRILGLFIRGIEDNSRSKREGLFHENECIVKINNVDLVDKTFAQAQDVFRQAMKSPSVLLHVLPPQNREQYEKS

[22] = target: Inadl_3, Q8NI35
[23] = target: PDLIM1, O00151
[24] = target: T10, APBA1_1, Q02410
T10 sequence (Q02410 651-752, limits assumed, looked up): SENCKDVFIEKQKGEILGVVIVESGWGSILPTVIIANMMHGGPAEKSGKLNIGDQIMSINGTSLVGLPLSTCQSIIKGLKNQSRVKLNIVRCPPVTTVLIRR

[25] = target: MAGI1_1, Q96QZ7
[26] = target: TJP1_3, Q07157
[27] = target: T11, MPP7, Q5T2T1
T11 sequence (Q5T2T1 134-230, limits assumed, looked up): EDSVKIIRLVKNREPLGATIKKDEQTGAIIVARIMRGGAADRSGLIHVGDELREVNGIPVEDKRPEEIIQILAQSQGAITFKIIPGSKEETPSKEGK

[28] = plain residues with an end cap or a label only (N-terminal biotin on a linker: ttds)
[29] = plain residues with an end cap or a label only (N-terminal biotin on a linker: ahx)

Sequence of CASK, O14936 (O14936 487-570): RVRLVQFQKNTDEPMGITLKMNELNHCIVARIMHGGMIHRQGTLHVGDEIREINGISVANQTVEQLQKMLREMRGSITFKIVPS
Sequence of FRMPD2_3, Q68DX3 (Q68DX3 1073-1166): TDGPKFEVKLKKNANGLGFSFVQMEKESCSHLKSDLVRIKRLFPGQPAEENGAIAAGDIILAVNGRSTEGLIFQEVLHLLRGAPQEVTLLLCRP
Sequence of GRIP2_4, Q9C0E4 (Q9C0E4 446-548): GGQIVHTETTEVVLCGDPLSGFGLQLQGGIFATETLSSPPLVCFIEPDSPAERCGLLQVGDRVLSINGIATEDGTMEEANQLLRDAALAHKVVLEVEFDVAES
Sequence of Inadl_5, Q8NI35 (Q8NI35 673-780): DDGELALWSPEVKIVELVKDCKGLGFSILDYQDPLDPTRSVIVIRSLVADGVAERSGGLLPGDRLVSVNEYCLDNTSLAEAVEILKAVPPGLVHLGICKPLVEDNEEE
Sequence of NHERF2_2, Q15599 (Q15599 142-238): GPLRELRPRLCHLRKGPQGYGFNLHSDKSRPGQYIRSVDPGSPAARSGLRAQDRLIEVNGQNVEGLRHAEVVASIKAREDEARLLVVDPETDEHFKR
Sequence of PDLIM1, O00151 (O00151 1-87): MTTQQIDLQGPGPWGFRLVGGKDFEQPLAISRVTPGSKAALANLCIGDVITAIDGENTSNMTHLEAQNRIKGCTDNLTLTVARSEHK
Sequence of DLG1_3, Q12959 (Q12959 457-571): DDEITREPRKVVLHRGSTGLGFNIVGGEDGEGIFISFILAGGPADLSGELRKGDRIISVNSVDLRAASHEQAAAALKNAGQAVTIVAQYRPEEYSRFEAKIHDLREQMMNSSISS
Sequence of HTRA1, Q92743 (Q92743 360-477): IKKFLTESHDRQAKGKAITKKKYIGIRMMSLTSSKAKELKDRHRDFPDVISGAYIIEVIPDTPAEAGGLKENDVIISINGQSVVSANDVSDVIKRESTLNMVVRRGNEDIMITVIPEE
Sequence of MAGI3_2, Q5TCQ9 (Q5TCQ9 398-503): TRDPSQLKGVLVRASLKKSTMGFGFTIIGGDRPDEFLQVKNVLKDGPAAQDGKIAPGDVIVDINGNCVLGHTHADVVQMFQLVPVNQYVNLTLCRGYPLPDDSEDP
Sequence of Inadl_4, Q8NI35 (Q8NI35 547-651): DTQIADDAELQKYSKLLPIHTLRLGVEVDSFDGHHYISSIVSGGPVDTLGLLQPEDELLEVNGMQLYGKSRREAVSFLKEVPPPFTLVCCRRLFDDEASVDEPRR
Sequence of Inadl_3, Q8NI35 (Q8NI35 359-469): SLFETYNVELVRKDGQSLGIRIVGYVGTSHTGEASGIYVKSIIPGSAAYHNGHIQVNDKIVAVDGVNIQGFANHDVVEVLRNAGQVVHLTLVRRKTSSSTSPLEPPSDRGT
Sequence of TJP1_3, Q07157 (Q07157 416-512): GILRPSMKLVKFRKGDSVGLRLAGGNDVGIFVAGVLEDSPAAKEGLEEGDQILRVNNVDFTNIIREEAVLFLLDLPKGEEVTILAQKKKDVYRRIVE
Sequence of ARHGEF12, Q9NZN5-2 (Q9NZN5 other isoform, or with tags, fused parts or gaps): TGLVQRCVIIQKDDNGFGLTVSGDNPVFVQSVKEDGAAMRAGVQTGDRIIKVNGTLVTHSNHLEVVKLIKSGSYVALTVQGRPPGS
Sequence of Inadl_6, Q8NI35 (Q8NI35 1058-1167): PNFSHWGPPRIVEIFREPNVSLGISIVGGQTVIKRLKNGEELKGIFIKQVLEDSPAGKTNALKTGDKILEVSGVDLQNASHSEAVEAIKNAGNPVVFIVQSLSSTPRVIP
Sequence of GRID2IP_2, A4D2P6 (A4D2P6 272-370): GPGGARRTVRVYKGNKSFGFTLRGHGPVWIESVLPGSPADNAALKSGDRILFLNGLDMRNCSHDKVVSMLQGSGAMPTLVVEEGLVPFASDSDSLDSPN
Sequence of MAGI1_1, Q96QZ7 (Q96QZ7 1-106): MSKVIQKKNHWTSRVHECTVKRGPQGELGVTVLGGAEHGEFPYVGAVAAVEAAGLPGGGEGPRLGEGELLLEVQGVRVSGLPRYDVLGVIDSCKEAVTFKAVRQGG

- pKd [1, 28]: below the threshold
- pKd [2, 28]: 4.2
- pKd [3, 28]: below the threshold
- pKd [4, 28]: below the threshold
- pKd [5, 28]: below the threshold
- pKd [6, 28]: below the threshold
- pKd [7, 28]: below the threshold
- pKd [8, 28]: 5.22
- pKd [9, 28]: below the threshold
- pKd [10, 28]: 3.75
- pKd [11, 28]: below the threshold
- pKd [12, 28]: 4.16
- pKd [13, 28]: below the threshold
- pKd [14, 28]: below the threshold
- pKd [15, 28]: 3.82
- pKd [16, 28]: 4.23
- pKd [17, 28]: below the threshold
- pKd [18, 28]: below the threshold
- pKd [19, 28]: below the threshold
- pKd [20, 28]: below the threshold
- pKd [21, 28]: below the threshold
- pKd [22, 28]: below the threshold
- pKd [23, 28]: below the threshold
- pKd [24, 28]: below the threshold
- pKd [25, 28]: below the threshold
- pKd [26, 28]: below the threshold
- pKd [27, 28]: below the threshold
B1: RASSF6, Q6ZTQ3 (peptide)
chain: KLVIKTETTV

- pKd [1, 28]: below the threshold
- pKd [2, 28]: 3.81
- pKd [3, 28]: below the threshold
- pKd [4, 28]: below the threshold
- pKd [5, 28]: below the threshold
- pKd [6, 28]: below the threshold
- pKd [7, 28]: below the threshold
- pKd [8, 28]: 4.16
- pKd [9, 28]: below the threshold
- pKd [10, 28]: below the threshold
- pKd [11, 28]: below the threshold
- pKd [12, 28]: below the threshold
- pKd [13, 28]: below the threshold
- pKd [14, 28]: below the threshold
- pKd [15, 28]: below the threshold
- pKd [16, 28]: 3.63
- pKd [17, 28]: below the threshold
- pKd [18, 28]: below the threshold
- pKd [19, 28]: 4.29
- pKd [20, 28]: below the threshold
- pKd [21, 28]: 3.8
- pKd [22, 28]: below the threshold
- pKd [23, 28]: below the threshold
- pKd [24, 28]: below the threshold
- pKd [25, 28]: below the threshold
- pKd [26, 28]: below the threshold
- pKd [27, 28]: below the threshold
B2: GPR6, P46095 (peptide)
chain: PFRSRSPSEV

Further lines, the binder ahead of its results:

B3: FZD7, O75084 (peptide)
chain: SHSSKGETAV
- pKd [1, 28]: below the threshold
- pKd [2, 28]: 4.01
- pKd [3, 28]: 3.46
- pKd [4, 28]: below the threshold
- pKd [5, 28]: below the threshold
- pKd [6, 28]: below the threshold
- pKd [7, 28]: below the threshold
- pKd [8, 28]: 4.93
- pKd [9, 28]: below the threshold
- pKd [10, 28]: below the threshold
- pKd [11, 28]: below the threshold
- pKd [12, 28]: 4.32
- pKd [13, 28]: 3.65
- pKd [14, 28]: below the threshold
- pKd [15, 28]: 3.97
- pKd [16, 28]: 4.03
- pKd [17, 28]: below the threshold
- pKd [18, 28]: below the threshold
- pKd [19, 28]: below the threshold
- pKd [20, 28]: 3.96
- pKd [21, 28]: 3.52
- pKd [22, 28]: below the threshold
- pKd [23, 28]: below the threshold
- pKd [24, 28]: below the threshold
- pKd [25, 28]: below the threshold
- pKd [26, 28]: below the threshold
- pKd [27, 28]: below the threshold

B4: USH1C, Q9Y6N9 (peptide)
chain: KEYDDELTFF
- pKd [1, 29]: below the threshold
- pKd [2, 29]: below the threshold
- pKd [3, 29]: below the threshold
- pKd [4, 29]: below the threshold
- pKd [5, 29]: below the threshold
- pKd [6, 29]: 3.71
- pKd [7, 29]: below the threshold
- pKd [8, 29]: below the threshold
- pKd [9, 29]: below the threshold
- pKd [10, 29]: 4.3
- pKd [11, 29]: below the threshold
- pKd [12, 29]: below the threshold
- pKd [13, 29]: below the threshold
- pKd [14, 29]: 5.32
- pKd [15, 29]: below the threshold
- pKd [16, 29]: below the threshold
- pKd [17, 29]: below the threshold
- pKd [18, 29]: below the threshold
- pKd [19, 29]: below the threshold
- pKd [20, 29]: below the threshold
- pKd [21, 29]: 4.52
- pKd [22, 29]: 3.89
- pKd [23, 29]: below the threshold
- pKd [24, 29]: below the threshold
- pKd [25, 29]: below the threshold
- pKd [26, 29]: below the threshold
- pKd [27, 29]: below the threshold
